From patent publication US20070093443A1

Target: T1, alpha-2 macroglobulin (in human plasma) (human) (UniProt P01023)
T1 sequence (looked up): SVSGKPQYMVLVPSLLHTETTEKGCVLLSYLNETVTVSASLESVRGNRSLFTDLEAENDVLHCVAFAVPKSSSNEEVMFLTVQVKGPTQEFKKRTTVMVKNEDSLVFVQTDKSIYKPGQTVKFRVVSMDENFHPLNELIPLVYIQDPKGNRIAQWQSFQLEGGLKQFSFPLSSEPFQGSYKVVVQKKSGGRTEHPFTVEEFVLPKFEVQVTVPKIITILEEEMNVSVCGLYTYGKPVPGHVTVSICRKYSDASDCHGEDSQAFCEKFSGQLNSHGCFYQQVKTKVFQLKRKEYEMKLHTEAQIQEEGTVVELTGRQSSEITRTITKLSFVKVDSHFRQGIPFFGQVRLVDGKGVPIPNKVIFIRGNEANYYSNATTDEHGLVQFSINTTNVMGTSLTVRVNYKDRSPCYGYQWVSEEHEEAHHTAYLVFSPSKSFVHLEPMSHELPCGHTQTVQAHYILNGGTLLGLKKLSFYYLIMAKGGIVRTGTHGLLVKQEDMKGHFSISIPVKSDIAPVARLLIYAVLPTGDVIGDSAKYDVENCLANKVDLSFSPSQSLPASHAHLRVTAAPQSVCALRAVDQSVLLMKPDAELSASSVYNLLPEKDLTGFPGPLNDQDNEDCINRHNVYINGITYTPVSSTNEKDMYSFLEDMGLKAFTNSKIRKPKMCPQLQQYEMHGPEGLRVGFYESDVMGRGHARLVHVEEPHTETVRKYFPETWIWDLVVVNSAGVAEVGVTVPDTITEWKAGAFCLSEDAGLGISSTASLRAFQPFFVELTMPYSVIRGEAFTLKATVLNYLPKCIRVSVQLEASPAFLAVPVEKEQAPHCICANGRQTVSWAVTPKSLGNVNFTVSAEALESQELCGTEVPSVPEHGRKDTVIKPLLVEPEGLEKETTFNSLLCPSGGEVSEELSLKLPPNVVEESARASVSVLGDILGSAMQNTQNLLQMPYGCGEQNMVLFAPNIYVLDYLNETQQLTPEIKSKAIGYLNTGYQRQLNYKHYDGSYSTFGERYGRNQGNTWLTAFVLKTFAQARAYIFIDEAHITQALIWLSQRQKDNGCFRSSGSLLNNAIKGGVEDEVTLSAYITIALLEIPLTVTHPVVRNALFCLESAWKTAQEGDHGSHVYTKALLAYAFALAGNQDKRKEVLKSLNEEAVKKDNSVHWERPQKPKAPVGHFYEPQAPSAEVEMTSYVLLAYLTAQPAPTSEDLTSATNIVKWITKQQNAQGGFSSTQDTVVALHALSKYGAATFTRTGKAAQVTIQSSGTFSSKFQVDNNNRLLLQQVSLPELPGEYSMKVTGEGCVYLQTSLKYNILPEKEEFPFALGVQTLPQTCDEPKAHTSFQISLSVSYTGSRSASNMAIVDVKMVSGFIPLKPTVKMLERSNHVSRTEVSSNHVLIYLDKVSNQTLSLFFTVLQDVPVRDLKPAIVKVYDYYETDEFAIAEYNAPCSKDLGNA
Test: Ac-RQAR-AMC activity of protease after 5 min in human citrated plasma, with and without M84R ecotin

% Unbound by a2M: 94%
B1: modified MT-SP1 CB484 (I41T/Y146E/Q175D/K224F) protease domain (enzyme)
chain: VVGGTDADEGEWPWQVSLHALGQGHTCGASLISPNWLVSAAHCYIDDRGFRYSDPTQWTAFLGLHDQSQRSAPGVQERRLKRIISHPFFNDFTFDYDIALLELEKPAEYSSMVRPICLPDASHVFPAGKAIWVTGWGHTQEGGTGALILQKGEIRVINQTTCENLLPQDITPRMMCVGFLSGGVDSCQGDSGGPLSSVEADGRIFQAGVVSWGDGCAQRNFPGVYTRLPLFRDWIKENTGV
